In PMC7809502:

Experiments:
[1] = molecular target: purified HiBiT; experiment: split reporter (BiFC, NanoBiT); NLuc complementation luminescence: purified HiBiT (1 nM) incubated with increasing concentrations of purified LgBiT; vehicle
[2] = molecular target: genome-edited CXCL12-HiBiT (human (endogenous in HEK293)) (UniProt P48061); experiment: split reporter (BiFC, NanoBiT); NLuc complementation luminescence: supernatants from HEK293 cells expressing genome-edited CXCL12-HiBiT incubated with increasing concentrations of purified LgBiT; with heparan sulfate (30 ug/mL)
[3] = molecular target: genome-edited CXCL12-HiBiT (human (endogenous in HEK293)) (UniProt P48061); experiment: split reporter (BiFC, NanoBiT); NLuc complementation luminescence: live HEK293 cells expressing genome-edited CXCL12-HiBiT incubated with increasing concentrations of purified LgBiT; vehicle
[4] = molecular target: genome-edited CXCL12-HiBiT (human (endogenous in HEK293)) (UniProt P48061); experiment: split reporter (BiFC, NanoBiT); NLuc complementation luminescence: live HEK293 cells expressing genome-edited CXCL12-HiBiT incubated with increasing concentrations of purified LgBiT; with surfen (10 uM)
[5] = molecular target: genome-edited CXCL12-HiBiT (human (endogenous in HEK293)) (UniProt P48061); experiment: split reporter (BiFC, NanoBiT); NLuc complementation luminescence: supernatants from HEK293 cells expressing genome-edited CXCL12-HiBiT incubated with increasing concentrations of purified LgBiT; vehicle
[6] = molecular target: genome-edited CXCL12-HiBiT (human (endogenous in HEK293)) (UniProt P48061); experiment: split reporter (BiFC, NanoBiT); NLuc complementation luminescence: supernatants from HEK293 cells expressing genome-edited CXCL12-HiBiT incubated with increasing concentrations of purified LgBiT; with surfen (10 uM)

Question: With LgBiT (18 kDa NLuc fragment) as the substance, how does the Kd [1] read?
Answer: 7.15 nM

Question: And the Kd [2]?
Answer: 16.1 nM

Question: And the Kd [3]?
Answer: 11.6 nM

Question: And the Kd [4]?
Answer: 5.93 nM

Question: What about the Kd [5] of the same substance?
Answer: 17.5 nM

Question: What about the Kd [6] of the same substance?
Answer: 7.46 nM
